Values belong to the molecule of their own block, whether it stands above or below them.
Experiments:
pkal (1 nM enzyme) = biological target: T1, pkal (1 nM enzyme) (Homo sapiens, UniProt P03952); assay: Inhibition of pkal enzymatic activity in a fluorogenic peptide substrate assay (screening); type: biochemical
T1 construct: active human plasma kallikrein (pkal, Enzyme Research Labs, South Bend, IN); purchased Enzyme Research Labs, South Bend, IN
Procedure: (§1) Monoclonal IgGs were retested for pkal and prekal binding by ELISA, and were screened for inhibition of pkal (1 nM enzyme) enzymatic activity in a fluorogenic peptide substrate assay (Kenniston et al. J Biol Chem. 2014 Aug. 22; 289(34):23596-608). […] This hybridoma was sequenced to determine heavy and light chain variable domains (SEQ ID NO: 1 and SEQ ID NO: 2; MAb1). […] The nucleic acid sequence of the heavy chain variable domain of MAb1 is provided as SEQ ID NO: 33 and the nucleic acid sequence of the light chain variable domain of MAb1 is provided as SEQ ID NO: 34.

human pkal and prekal = assay: ELISA for binding to human pkal and prekal; details: monoclonal IgG from hybridoma
Procedure: Five prekallikrein (prekal) knock-out mice were immunized via the hock route with active human plasma kallikrein (pkal, Enzyme Research Labs, South Bend, IN). When serum titers indicated a robust immune response, draining lymph nodes were harvested, and lymphocytes were fused with a myeloma line using electrofusion. Resulting hybridomas were plated in thirty 384-well plates, and screening by ELISA for binding to human pkal and prekal. Hybridoma lines with preferential binding to pkal were subcloned and expanded.
as §1

plasma kallikrein (pkal) = biological target: T2, plasma kallikrein (pkal) (Homo sapiens, UniProt P03952); assay: HMWK cleavage functional assay (bradykinin release measured by ELISA); type: biochemical; details: inhibition of HMWK cleavage by pkal
T2 construct: active human plasma kallikrein (pkal, Enzyme Research Labs, South Bend, IN); purchased Enzyme Research Labs
T2 sequence (P03952 20-390 limits assumed): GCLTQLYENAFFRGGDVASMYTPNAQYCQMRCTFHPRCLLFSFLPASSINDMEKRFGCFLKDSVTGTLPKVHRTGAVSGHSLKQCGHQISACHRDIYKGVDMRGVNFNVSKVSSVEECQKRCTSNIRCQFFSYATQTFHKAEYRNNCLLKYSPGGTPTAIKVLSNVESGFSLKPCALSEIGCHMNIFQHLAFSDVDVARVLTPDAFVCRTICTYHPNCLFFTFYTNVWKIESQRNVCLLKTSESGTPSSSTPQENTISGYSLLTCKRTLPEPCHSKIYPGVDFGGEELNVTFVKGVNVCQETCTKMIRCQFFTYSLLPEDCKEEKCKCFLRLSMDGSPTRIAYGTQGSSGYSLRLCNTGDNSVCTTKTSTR
T2 sequence (P03952 391-638 limits assumed): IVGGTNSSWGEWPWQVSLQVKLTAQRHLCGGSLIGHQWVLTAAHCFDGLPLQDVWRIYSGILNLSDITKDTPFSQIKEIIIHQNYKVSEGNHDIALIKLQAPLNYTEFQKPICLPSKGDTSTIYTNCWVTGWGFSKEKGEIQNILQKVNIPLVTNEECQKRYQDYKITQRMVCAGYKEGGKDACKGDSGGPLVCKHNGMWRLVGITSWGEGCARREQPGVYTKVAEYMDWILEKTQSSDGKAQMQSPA
Procedure: Specifically, the ability of each antibody to inhibit pkal cleavage of its natural substrate, High Molecular Weight Kininogen (HMWK) was observed. In these experiments 10 or 30 nM pkal was preincubated with inhibitory antibodies for 1 hr at RT, then 600 nM HMWK was added and incubated for 20 minutes and the reaction was quenched by adding 0.5 μM AEBSF. The concentration of bradykinin (BK) released from HMWK as catalyzed by pKal was measured using 1/100 dilution of the reaction product in a commercial ELISA kit (Enzo, Farmingdale, NY).
The HMWK assay parameters were physiologically relevant as the concentration of high molecular weight kininogen used is the concentration that circulates in humans and the concentration of plasma kallikrein used is in the range of what has been estimated in plasma from patients with hereditary angioedema (HAE) during an attack.
The IC90 values for the antibodies were also determined to provide an index of relative potency. In HAE, the therapeutically relevant level of inhibition to prevent HAE attacks is thought to be approximately 90% inhibition of plasma kallikrein. This corresponds to a measurement referred to as IC90, which is the concentration of an agent that results in 90% inhibitory effect.

human FcRn = biological target: T3, human FcRn (Homo sapiens, UniProt P55899); assay: hFcRn binding by SPR (Biacore T200)
T3 construct: purchased Sino Biological CT009-H08H
Procedure: IgG1 was used as a control antibody. The antibody samples were assessed for FcRn binding via SPR using a Biacore T200. The Biacore chip was a CMS coupled with human FcRn (Sino Biological, Cat. No. CT009-H08H). Running buffer used was PBS 0.05% P20 and pH 6 or pH 7.4.

human plasma kallikrein = biological target: T4, human plasma kallikrein (Homo sapiens, UniProt P03952); assay: SPR binding to human plasma kallikrein; details: pH 7.4, 37° C.
T4 construct: active human plasma kallikrein (pkal, Enzyme Research Labs, South Bend, IN); purchased Enzyme Research Labs
T4 sequence (P03952 20-390 limits assumed): as the sequence (P03952 20-390 limits assumed) above
T4 sequence (P03952 391-638 limits assumed): as the sequence (P03952 391-638 limits assumed) above
Procedure: Kinetic properties and selectivity of lead pkal antibodies were examined by SPR at 37° C. and either pH 7.4 or pH 6.0.

trypsin, human pancrease = assay: Trypsin inhibition assay; type: biochemical; details: dilution series starting at 1 μM
Procedure: Fluorescence intensity was measured every 5 minutes. Gabexate mesylate was used as a positive control, in a dilution series starting at 1 μM. The assay was performed in duplicate.

[1] = Cynomolgus pharmacokinetic studies; type: in vivo, cynomolgus monkey; details: male cynomolgus, IV infusion 5 mg/kg
Procedure: These studies of these antibodies were conducted concurrently, but were independent studies rather than a head-to-head comparison. Cynomolgus monkeys, LM-naïve or naive, 3.0-4.0 kg, male, N=18, were purchased from Hainan Jingang Biotech Co. LTD. The antibodies were prepared in 20 mM Histidine, 150 mM NaCl, 0.01% Tween 80, pH 6.5. In these studies, all antibodies were administered to male cynomolgus monkeys (N=3) via IV infusion over 10 min at 5 mg/kg. Blood was collected from cephalic and saphenous veins into pre-cooled citrate acid tubes at each time point. […] Blood samples were put on wet ice and centrifuged at 4° C. to obtain plasma within 15 minutes of sample collection. Plasma samples were stored at approximately −70 C. Presence of each anti-plasma kallikrein antibody in the plasma samples was determined via ELISA using a plate coated with anti-human antibody as the capture agent and human IgG-heavy and light chain monkey-adsorbed antibody as the detection reagent (Southern Biotech, Cat #: 2049-01 and Bethyl, Cat #A80-319P). ELISA plates were read using a SpectraMax M2.

T1 sequence (P03952 391-638 limits assumed): as above
T1 sequence (P03952 20-390 limits assumed): as the sequence (P03952 20-390 limits assumed) above

B1: MAb1: murine hybridoma lineage 24L13 anti-plasma kallikrein antibody; VH SEQ ID NO: 1, VL SEQ ID NO: 2 (antibody, V domains shown)
VH: QVQLQQSGAELVKPGASVKISCKASGYAFSSYWMNWVKQRPGEGLEWIGQIYPGDDDTNYNGKFKGKATLTVDKSSTTAYMQLSSLTSEDSAVYFCAGSLMVTTGAPFDYWGQGTTLTVSS
VL: DIVMTQSHKFMSTSVGDRVSITCKASQDVGIAVAWYQQKPGQSPKFLIYWASTRHTGVPDRFTGSGSGTDFTLTIRNVQSEDLSDYFCQQYRSYPLTFGSGTKLELK
inhibition of pkal enzymatic activity (in words) (pkal (1 nM enzyme)): inhibitory
selectivity for pkal over prekal by ELISA (human pkal and prekal): selective for pkal

B3: MAb2: optimally humanized variant VH5_VL4; VH SEQ ID NO: 3, VL SEQ ID NO: 4 (antibody, V domains shown)
VH: QVQLVQSGAEVKKPGSSVKVSCKASGYAFSSYWMNWVRQAPGQGLEWIGQIYPGDDDTNYNGKFQGRVTITVDKSTTTAYMELSSLRSEDTAVYFCAGSLMVTTGAPFDYWGQGTTVTVSS
VL: DIQMTQSPSSLSASVGDRVTITCKASQDVGIAVAWYQQKPGKAPKFLIYWASTRHTGVPDRFSGSGSGTDFTLTISSLQPEDFATYFCQQYRSYPLTFGQGTKLEIK
inhibition of pkal enzymatic activity (in words) (pkal (1 nM enzyme)): maintained both binding affinity and inhibitory potency

Second part, led by results:

Hill slope (plasma kallikrein (pkal)): ~2
hFcRn Binding Ka (human FcRn; pH 6.0): 184000 M⁻¹ s⁻¹
hFcRn Binding Kd (human FcRn; pH 6.0): 0.0277 s⁻¹
hFcRn binding at pH 7.4 (human FcRn; pH 7.4, data not shown): no evidence of binding
Ka (human plasma kallikrein): 69000 M⁻¹ s⁻¹
Kd (human plasma kallikrein): 7.3e-05 s⁻¹
B2: MAb4-YTE: MAb4 with M252Y, S254T, T256E; heavy chain SEQ ID NO: 10, light chain SEQ ID NO: 8 (antibody)
heavy: QVQLVQSGAEVKKPGSSVKVSCKASGYAFSSYWMNWVRQAPGQGLEWIGQIYPGDDDTNYNAKFQGRVTITVDKSTTTAYMELSSLRSEDTAVYFCAGSLMVTTGAPFDYWGQGTTVTVSSASTKGPSVFPLAPSSKSTSGGTAALGCLVKDYFPEPVTVSWNSGALTSGVHTFPAVLQSSGLYSLSSVVTVPSSSLGTQTYICNVNHKPSNTKVDKRVEPKSCDKTHTCPPCPAPELLGGPSVFLFPPKPKDTLYITREPEVTCVVVDVSHEDPEVKFNWYVDGVEVHNAKTKPREEQYNSTYRVVSVLTVLHQDWLNGKEYKCKVSNKALPAPIEKTISKAKGQPREPQVYTLPPSREEMTKNQVSLTCLVKGFYPSDIAVEWESNGQPENNYKTTPPVLDSDGSFFLYSKLTVDKSRWQQGNVFSCSVMHEALHNHYTQKSLSLSPG
light: DIQMTQSPSSLSASVGDRVTITCKASQDVGIAVAWYQQKPGKAPKFLIYYASHRGWGVPDRFSGSGSGTDFTLTISSLQPEDFATYFCQQYRSYPLTFGQGTKLEIKRTVAAPSVFIFPPSDEQLKSGTASVVCLLNNFYPREAKVQWKVDNALQSGNSQESVTEQDSKDSTYSLSSTLTLSKADYEKHKVYACEVTHQGLSSPVTKSFNRGEC
inhibition of trypsin activity (trypsin, human pancrease): did not inhibit trypsin activity
CI (mL/day/kg) (Mean ± SD) [1]: 1.44 ± 0.33 mL/day/kg
T ½ (days) (Mean ± SD) [1]: 33.6 ± 8.3 days
Vss (mL/kg) (Mean ± SD) [1]: 66.8 ± 6.1 mL/kg
terminal half-life [1]: approximately 34 days

inhibition of pkal enzymatic activity (in words) (pkal (1 nM enzyme)): maintained selectivity and activity
B4: MAb3: humanized, liability fixed VH SEQ ID NO: 5 with CDR2-optimized VL SEQ ID NO: 6 (antibody, V domains shown)
VH: QVQLVQSGAEVKKPGSSVKVSCKASGYAFSSYWMNWVRQAPGQGLEWIGQIYPGDDDTNYNAKFQGRVTITVDKSTTTAYMELSSLRSEDTAVYFCAGSLMVTTGAPFDYWGQGTTVTVSS
VL: DIQMTQSPSSLSASVGDRVTITCKASQDVGIAVAWYQQKPGKAPKFLIYYASHRGWGVPDRFSGSGSGTDFTLTISSLQPEDFATYFCQQYRSYPLTFGQGTKLEIK
